Assay results from US5880093A, “Use of parathormone, its biologically active fragments and correlated peptides, for the preparation of pharmaceutical compositions useful for the treatment of pregnancy” (priority 1992, dated 1999).
Entries after “also recorded” stand apart in the source; their conditions may differ.

B1: Parathormone (protein, UniProt P01270 32-115, looked up)
Parathyroid hormone: SVSEIQLMHNLGKHLNSMERVEWLRKKLQDVHNFVALGAPLAPRDAGSQRPRKKEDNVLVESHEKSLGEADKADVNVLTKAKSQ
modifications: Parathyroid hormone
notes: intact (whole) human parathyroid hormone

Columns and labels:
uterine contractions = assay: clinical observation of pregnant women with symptoms of likely premature birth (cardiotocography, arterial pressure, heart rate); type: in vivo, human
Description: Three pregnant women having symptoms indicating the likelihood of premature birth have been observed while in their 34-36th week of pregnancy. […] Arterial pressure, heart rate and skin coloring were evaluated. The women were clearly aware of the contractions and of the pain caused by such contractions.
The women were administered 100 Units of synthetic Parathormone 1-34 (two vials according to Examples 1 and 2) by rapid infusion (10 minutes), diluted in 200 cc of physiological solution. Two blood samples were taken before and after infusion and the serum was frozen and stored at -20° C. for the evaluation of the mineral elements (calcium, phosphorous, magnesium, alkaline phosphatase, parathormone, progesterone, estradiol).

human myometrium = assay: in vitro motility of fragments of myometrium of pregnant women, contraction induced by oxytocin; conditions: PTH 8.5×10^-8 M, oxytocin 1×10^-2 U, myometrium taken during Caesarean birth, FIG. 2 vs FIG. 1
Text: Experimental Trials on the in vitro motility of fragments of myometrium of pregnant women

[1] = system: contractions induced by PGF2alpha; assay: contractions induced by PGF2alpha; type: in vivo; conditions: PGF2alpha 1 mg/kg; PTH 4×10^-4 mg/Kg; FIG. 4 vs FIG. 3
Text: Furthermore. Parathormone, has also been essayed for the contractions induced by PGF2alpha according to the technique described in the British Journal of Pharmacology 93: 185-191 (1988).

rat uterus = conditions: in vitro, studies reported in the literature; cited from earlier work
[2] = three pregnant women, 34-36th week, 100 Units by rapid infusion (10 minutes)

| Molecule | arterial pressure and heart rate of the mother (uterine contractions; 100 Units by rapid infusion) | patient-reported uterine contractions and pain caused by the contractions (uterine contractions; 100 Units by rapid infusion, pain particularly in the lumbar-sacral region) | fetal heart beat (uterine contractions; cardiotocography, 40 minutes monitoring, 100 Units by rapid infusion, FIG. 5) | cardiotocography waves referring to uterine contractions (uterine contractions; period of monitoring 40 minutes, 100 Units by rapid infusion, FIG. 5) | efficacy on uterine contractility (uterine contractions; [2]) | side effects in mother and fetus (uterine contractions; [2]) | effect on contraction of human myometrium induced by oxytocin (human myometrium) | effect on contraction of human myometrium induced by oxytocin (human myometrium; listed as intact human parathormone) | effect on contractions induced by PGF2alpha (intensity and duration) [1] | action on contractility of the rat uterus induced by oxytocin, acetylcholine and prostaglandin (rat uterus) |
| --- | --- | --- | --- | --- | --- | --- | --- | --- | --- | --- |
| Parathormone 1-34 | did not show variations of worthwhile note | immediate disappearance of uterine contractions and of pain | did not show variations and remained within the normal limits | disappearance of waves referring to uterine contractions | efficacy of Parathormone on uterine contractility | no side effects have been noted either in the mother or the fetus; also recorded: no side effects were noted in relation to the infusion of the drug |  |  |  |  |
| B1 |  |  |  |  |  |  | net inhibitory effect | inhibitory effect (flat trace) | clear inhibitory effect both in terms of intensity and duration | inhibitory action |
